Data on 19 molecules can be found in the FLAb antibody collection (doi:10.1101/2023.12.08.570889).

First the molecules themselves.
B1: unnamed (protein)
chain 1: QMQLVESGGGVVQPGRSLRLSCAASGFTFSTFAMHWVRQAPGKGLEWVAVIWYDGSNKHYADSVKGRFTITRDNSKNTLNLQMNSLRAEDTAVYYCARAPRYYDYYEAFDVWGQGTMVTVSS
chain 2: SYVLTQPPSVSVAPGQTARITCGGNNLGSKSVHWYQQKPGQAPVLVVYDDSDRPSWIPERFSGSNSGNTATLTISRGEAGDEADYYCQVWDSSSDHVVFGGGTKLTVL
B2: unnamed (protein)
chain 1: QMQLVESGGGVVQPGRSLRLSCAASGFTFSTYAMHWVRQAPGKGLEWVAVIWYDGSNKHYADSVKGRFTITRDNSKNTLNLQMNSLRAEDTAVYYCARAPRYDEYYEAFDVWGQGTMVTVSS
chain 2: SYVLTQPPSVSVAPGQTARITCGGNNLGSKSVHWYQQKPGQAPVLVVYDDSDRPSWIPERFSGSNSGNTATLTISRGEAGDEADYYCQVWDSSSDHVVFGGGTKLTVL
B3: unnamed (protein)
chain 1: QMQLVESGGGVVQPGRSLRLSCAASGFTFSTFAMHWVRQAPGKGLEWVAVIWYDGSNKHYADSVKGRFTITRDNSKNTLNLQMNSLRAEDTAVYYCARAPRYDDLYEAFDVWGQGTMVTVSS
chain 2: SYVLTQPPSVSVAPGQTARITCGGNNLGSKSVHWYQQKPGQAPVLVVYDDSDRPSWIPERFSGSNSGNTATLTISRGEAGDEADYYCQVWDSSSDHVVFGGGTKLTVL
B4: unnamed (protein)
chain 1: QMQLVESGGGVVQPGRSLRLSCAASGFTFSTFAMHWVRQAPGKGLEWVAVIWYDGSNKHYADSVKGRFTITRDNSKNTLNLQMNSLRAEDTAVYYCARAPRYDEYWEAFDVWGQGTMVTVSS
chain 2: SYVLTQPPSVSVAPGQTARITCGGNNLGSKSVHWYQQKPGQAPVLVVYDDSDRPSWIPERFSGSNSGNTATLTISRGEAGDEADYYCQVWDSSSDHVVFGGGTKLTVL
B5: unnamed (protein)
chain 1: QMQLVESGGGVVQPGRSLRLSCAASGFTFSTYAMHWVRQAPGKGLEWVAVIWYDGSNKHYADSVKGRFTITRDNSKNTLNLQMNSLRAEDTAVYYCARAPRYYWYYEAFDVWGQGTMVTVSS
chain 2: SYVLTQPPSVSVAPGQTARITCGGNNLGSKSVHWYQQKPGQAPVLVVYDDSDRPSWIPERFSGSNSGNTATLTISRGEAGDEADYYCQVWDSSSDHVVFGGGTKLTVL
B6: unnamed (protein)
chain 1: QMQLVESGGGVVQPGRSLRLSCAASGFTFSTFAMHWVRQAPGKGLEWVAVIWYDGSNKHYADSVKGRFTITRDNSKNTLNLQMNSLRAEDTAVYYCARSPRYDDYLEAFDVWGQGTMVTVSS
chain 2: SYVLTQPPSVSVAPGQTARITCGGNNLGSKSVHWYQQKPGQAPVLVVYDDSDRPSWIPERFSGSNSGNTATLTISRGEAGDEADYYCQVWDSSSDHVVFGGGTKLTVL
B7: unnamed (protein)
chain 1: QMQLVESGGGVVQPGRSLRLSCAASGFTFSTYAMHWVRQAPGKGLEWVAVIWYDGSNKHYADSVKGRFTITRDNSKNTLNLQMNSLRAEDTAVYYCARSPRYDEYYEAFDVWGQGTMVTVSS
chain 2: SYVLTQPPSVSVAPGQTARITCGGNNLGSKSVHWYQQKPGQAPVLVVYDDSDRPSWIPERFSGSNSGNTATLTISRGEAGDEADYYCQVWDSSSDHVVFGGGTKLTVL
B8: unnamed (protein)
chain 1: QMQLVESGGGVVQPGRSLRLSCAASGFTFSTFAMHWVRQAPGKGLEWVAVIWYDGSNKHYADSVKGRFTITRDNSKNTLNLQMNSLRAEDTAVYYCARAPRYDEHYEAFDVWGQGTMVTVSS
chain 2: SYVLTQPPSVSVAPGQTARITCGGNNLGSKSVHWYQQKPGQAPVLVVYDDSDRPSWIPERFSGSNSGNTATLTISRGEAGDEADYYCQVWDSSSDHVVFGGGTKLTVL
B9: unnamed (protein)
chain 1: QMQLVESGGGVVQPGRSLRLSCAASGFTFSTFAMHWVRQAPGKGLEWVAVIWYDGSNKHYADSVKGRFTITRDNSKNTLNLQMNSLRAEDTAVYYCARSPRYYDYYEAFDVWGQGTMVTVSS
chain 2: SYVLTQPPSVSVAPGQTARITCGGNNLGSKSVHWYQQKPGQAPVLVVYDDSDRPSWIPERFSGSNSGNTATLTISRGEAGDEADYYCQVWDSSSDHVVFGGGTKLTVL
B10: unnamed (protein)
chain 1: QMQLVESGGGVVQPGRSLRLSCAASGFTFSTFAMHWVRQAPGKGLEWVAVIWYDGSNKHYADSVKGRFTITRDNSKNTLNLQMNSLRAEDTAVYYCARAPRYDDYYEAFDVWGQGTMVTVSS
chain 2: SYVLTQPPSVSVAPGQTARITCGGNNLGSKSVHWYQQKPGQAPVLVVYDDSDRPSWIPERFSGSNSGNTATLTISRGEAGDEADYYCQVWDSSSDHVVFGGGTKLTVL
B11: unnamed (protein)
chain 1: QMQLVESGGGVVQPGRSLRLSCAASGFTFSTFAMHWVRQAPGKGLEWVAVIWYDGSNKHYADSVKGRFTITRDNSKNTLNLQMNSLRAEDTAVYYCARAPRYYDYWEAFDVWGQGTMVTVSS
chain 2: SYVLTQPPSVSVAPGQTARITCGGNNLGSKSVHWYQQKPGQAPVLVVYDDSDRPSWIPERFSGSNSGNTATLTISRGEAGDEADYYCQVWDSSSDHVVFGGGTKLTVL
B12: unnamed (protein)
chain 1: QMQLVESGGGVVQPGRSLRLSCAASGFTFSTFAMHWVRQAPGKGLEWVAVIWYDGSNKHYADSVKGRFTITRDNSKNTLNLQMNSLRAEDTAVYYCARAPRYDWYLEAFDVWGQGTMVTVSS
chain 2: SYVLTQPPSVSVAPGQTARITCGGNNLGSKSVHWYQQKPGQAPVLVVYDDSDRPSWIPERFSGSNSGNTATLTISRGEAGDEADYYCQVWDSSSDHVVFGGGTKLTVL
B13: unnamed (protein)
chain 1: QMQLVESGGGVVQPGRSLRLSCAASGFTFSTYAMHWVRQAPGKGLEWVAVIWYDGSNKHYADSVKGRFTITRDNSKNTLNLQMNSLRAEDTAVYYCARSPRYYEYYEAFDVWGQGTMVTVSS
chain 2: SYVLTQPPSVSVAPGQTARITCGGNNLGSKSVHWYQQKPGQAPVLVVYDDSDRPSWIPERFSGSNSGNTATLTISRGEAGDEADYYCQVWDSSSDHVVFGGGTKLTVL
B14: unnamed (protein)
chain 1: QMQLVESGGGVVQPGRSLRLSCAASGFTFSTYAMHWVRQAPGKGLEWVAVIWYDGSNKHYADSVKGRFTITRDNSKNTLNLQMNSLRAEDTAVYYCARAPRYDEYVEAFDVWGQGTMVTVSS
chain 2: SYVLTQPPSVSVAPGQTARITCGGNNLGSKSVHWYQQKPGQAPVLVVYDDSDRPSWIPERFSGSNSGNTATLTISRGEAGDEADYYCQVWDSSSDHVVFGGGTKLTVL
B15: unnamed (protein)
chain 1: QMQLVESGGGVVQPGRSLRLSCAASGFTFSSFAMHWVRQAPGKGLEWVAVIWYDGSNKHYADSVKGRFTITRDNSKNTLNLQMNSLRAEDTAVYYCARAPRYDEYYEAFDVWGQGTMVTVSS
chain 2: SYVLTQPPSVSVAPGQTARITCGGNNLGSKSVHWYQQKPGQAPVLVVYDDSDRPSWIPERFSGSNSGNTATLTISRGEAGDEADYYCQVWDSSSDHVVFGGGTKLTVL
B16: unnamed (protein)
chain 1: QMQLVESGGGVVQPGRSLRLSCAASGFTFSTFAMHWVRQAPGKGLEWVAVIWYDGSNKHYADSVKGRFTITRDNSKNTLNLQMNSLRAEDTAVYYCARAPRYYYYYEAFDVWGQGTMVTVSS
chain 2: SYVLTQPPSVSVAPGQTARITCGGNNLGSKSVHWYQQKPGQAPVLVVYDDSDRPSWIPERFSGSNSGNTATLTISRGEAGDEADYYCQVWDSSSDHVVFGGGTKLTVL
B17: unnamed (protein)
chain 1: QMQLVESGGGVVQPGRSLRLSCAASGFTFSTFAMHWVRQAPGKGLEWVAVIWYDGSNKHYADSVKGRFTITRDNSKNTLNLQMNSLRAEDTAVYYCARAPRYDDRYEAFDVWGQGTMVTVSS
chain 2: SYVLTQPPSVSVAPGQTARITCGGNNLGSKSVHWYQQKPGQAPVLVVYDDSDRPSWIPERFSGSNSGNTATLTISRGEAGDEADYYCQVWDSSSDHVVFGGGTKLTVL
B18: unnamed (protein)
chain 1: QMQLVESGGGVVQPGRSLRLSCAASGFTFSTFAMHWVRQAPGKGLEWVAVIWYDGSNKHYADSVKGRFTITRDNSKNTLNLQMNSLRAEDTAVYYCARAPRYYEYYEAFDVWGQGTMVTVSS
chain 2: SYVLTQPPSVSVAPGQTARITCGGNNLGSKSVHWYQQKPGQAPVLVVYDDSDRPSWIPERFSGSNSGNTATLTISRGEAGDEADYYCQVWDSSSDHVVFGGGTKLTVL
B19: unnamed (protein)
chain 1: QMQLVESGGGVVQPGRSLRLSCAASGFTFSTFAMHWVRQAPGKGLEWVAVIWYDGSNKHYADSVKGRFTITRDNSKNTLNLQMNSLRAEDTAVYYCARAPRYDDDYEAFDVWGQGTMVTVSS
chain 2: SYVLTQPPSVSVAPGQTARITCGGNNLGSKSVHWYQQKPGQAPVLVVYDDSDRPSWIPERFSGSNSGNTATLTISRGEAGDEADYYCQVWDSSSDHVVFGGGTKLTVL

For this assay, the target named is TSLP, Q969D9. Kind of assay: Kd (SPR).
Regarding B1, the equilibrium dissociation constant (Kd) is 56.8 nM. As for B2, the figure is 224 nM. The result for B3 reads 188 nM; that for B4, 764 nM; that for B5, 87.1 nM.

In turn, B6 yielded a Kd of 80.5 nM. The result for B7 reads 219 nM; that for B8, 777 nM; that for B9, 41.8 nM.

In turn, B10 registered a Kd of 92.5 nM.

In turn, B11 yielded a dissociation constant (Kd) of 221 nM. Regarding B12, the dissociation constant Kd turned out to be 157 nM.

As for B13, the Kd was found to be 57 nM. The result for B14 reads 195 nM.

The molecule B15 had a Kd of 186 nM. As for B16, the figure is 208 nM; as for B17, 490 nM. The result for B18 reads 106 nM; that for B19, 112 nM.

The Kd is the equilibrium constant for the complex coming apart. Lower therefore signals tighter binding.
